This note sets out measurements from publication PMC3018548 (Archives of biochemistry and biophysics, 2010).

By Kd is commonly meant a measure of binding affinity in units of concentration.

This series concerns the molecule itself. The series can be described thus: protein concentration dependence of fluorimetric metal uptake kinetics.

B1: Escherichia coli apo-manganese superoxide dismutase (wt apo-MnSOD) (enzyme, UniProt P00448 1-206, looked up)
chain: MSYTLPSLPYAYDALEPHFDKQTMEIHHTKHHQTYVNNANAALESLPEFANLPVEELITKLDQLPADKKTVLRNNAGGHANHSLFWKGLKKGTTLQGDLKAAIERDFGSVDNFKAEFEKAAASRFGSGWAWLVLKGDKLAVVSTANQDSPLMGEAISGASGFPIMGLDVWEHAYYLKFQNRRPDYIKEFWNVVNWDEAAARFAAKK
Regarding B1, the equilibrium dissociation constant (Kd) came to 6.6 ± 0.9 µM.
